Experiment: soluble on expression in E. coli; label from the status in PepcDB or PDB records

| Sequence | soluble on expression in E. coli |
| --- | --- |
| MEPRVTQRKRPLDGCMGKITGITSDILKYDHKCFKLSLPAKFPEVCGSDEVFPDPDLLHVLPVAGSLQQSIDQCCLQLESLCRPGLLCAHPTLLFKLHSSMKNRPFFSLIYTYVKKTQQVRKRDRKPRGQVAAGPNPTSVMLEHHHHHH | soluble |
| MEQFINPRVKDIQISGIRQFSNMIQNYDNLISLTIGQSDFPTPSLVKEAAKRAITENYTSYTHNAGLLELRKAACNFVKDNYDLHYSPETETIVTIGASEAIDVAFRTILEPGTEVILPAPIYPGYEPIIRLCGATPIFIDVRETGFRLTAEALENAITEKTRCVVLPYPSNPTGVTLSKKELQDIADVLKDKNIFVLSDEIYSELVYEQTHTSIAHFPEMREKTIVINGLSKSHSMTGWRIGLLFAPSYLAGHILKVHQYNVTCATSIAQYAAIEALTAAKDAPKMMRHQYKKRRDYVYNRLIQMGLTVEKPTGAFYLFPYVGHLTSSSFDFALDLVKEAGLAVVPGTAFSEYGEGYLRLSYAYSIETLKEGCDRLEAFLQQKAKS | not soluble |
| MEQLTKCEVFRELKDLKGYGGVSLPEWVCTTFHTSGYDTQAIVQNNDSTEYGLFQINNKIWCKDDQNPHSSNICNISCDKFLDDDLTDDIVCVKKILDKVGINYWLAHKALCSEKLDQWLCEKL | soluble |
| MERAESSSTEPAKAIKPIDRKSVHQICSGQVVLSLSTAVKELVENSLDAGATNIDLKLKDYGVDLIEVSDNGCGVEEENFEGLTLKHHTSKIQEFADLTQVETFGFRGEALSSLCALSDVTISTCHASAKVGTRLMFDHNGKIIQKTPYPRPRGTTVSVQQLFSTLPVRHKEFQRNIKKEYAKMVQVLHAYCIISAGIRVSCTNQLGQGKRQPVVCTGGSPSIKENIGSVFGQKQLQSLIPFVQLPPSDSVCEEYGLSCSDALHNLFYISGFISQCTHGVGRSSTDRQFFFINRRPCDPAKVCRLVNEVYHMYNRHQYPFVVLNISVDSECVDINVTPDKRQILLQEEKLLLAVLKTSLIGMFDS | soluble |
| MEREQRHKVIMRTIDRPGITRIDALTELTGVSAVTIHRDLVELEQAGFLARTHGGAKRVPKRGTPQPFAVRQAEDREAKRILAQATAQLIADDEAVIFDNGTTCQAVAQELAGRPITALCLSLHSAVALGSRAGTNVFIPGGPVENDSLALSGPAVITALRDFSADVVILGSCSTSLEHGLATTTYDDAENKRAAIHAATRRILVVSARKLNHVSTFRFADVADLHQLVTTSDAPREILAEIRDLGVQVITVPAPDEQRSLEHHHHHH | soluble |
| MERLKIQVLVDNNTYIDRYFVGEPAVSYYIEIDGNRILFDSGYSDVFISNAEKLNIDLGNLTHVVFSHGHNDHTRGIQFLENRYDLSTVELVSHPNCFIPRKHGEKSIGAPFSAEEIKNIFMYNPKDKPFNLSKNCVFLGEIPSINDFEKRAKIGKCKIGDLWEDDYVLDDSAIVCKTDKGIFIVTGCSHSGICNIVEYAKKVCGDDRVIGILGGFHLFELNNRLDSTIQYLDKEEIRMLYPCHCVSFKVKAKMNEILNINEVGVGLTISILEHHHHHH | soluble |
| MERTVVETRYGRLRGEMNEGVFVWKGIPYAKAPVGERRFLPPEPPDAWDGVREATSFGPVVMQPSDPIFSGLLGRMSEAPSEDGLYLNIWSPAADGKKRPVLFWIHGGAFLFGSGSSPWYDGTAFAKHGDVVVVTINYRMNVFGFLHLGDSFGEAYAQAGNLGILDQVAALRWVKENIAAFGGDPDNITIFGESAGAASVGVLLSLPEASGLFRRAMLQSGSGSLLLRSPETAMAMTERILDKAGIRPGDRERLLSIPAEELLRAALSLGPGVMYGPVVDGRVLRRHPIEALRYGAASGIPILIGVTKDEYNLFTLTDPSWTKLGEKELLDRINREVGPVPEEAIRYYKETAEPSAPTWQTWLRIMTYRVFVEGMLRTADAQAAQGADVYMYRFDYETPVFGGQLKAAHALELPFVFHNLHQPGVANFVGNRPEREAIANEMHYAWLSFARTGDPNGAHLPEAWPAYTNERKAAFVFSAASHVEDDPFGRERAAWQGR | soluble |
| MESAGFHYKLDIPAGTPDCAIVLLHGSGRTEDDLISFGRAVFPTGALYAPRGAVAWENGFAFFRRKPDRELDIDDLKHQATRLCHFVAFVFQQTGRRPILVGYSNGAIIAAETICQAHHLSKGAILLRPLSPRKDQSLPNLAGYPVLLLAGASDDRRHPSDAPHLSEQLTSAGADAVLETINTGHGWAEDAADERLSRQWLARLPIA | not soluble |
| MESENQIAILDYIFNQVNQPNQPKIVWFSGEGEDEKINFLIRLNDFFKPKFVENTNDSSFLLSFRNHVETKNSTPLTQANFANIANKLLAVLFGSLQWKQLNK | not soluble |
| MESGHRFDAQTLHSFIQAVFRQMGSEEQEAKLVADHLIAANLAGHDSHGIGMIPSYVRSWSQGHLQINHHAKTVKEAGAAVTLDGDRAFGQVAAHEAMALGIEKAHQHGIAAVALHNSHHIGRIGYWAEQCAAAGFVSIHFVSVVGIPMVAPFHGRDSRFGTNPFCVVFPRKDNFPLLLDYATSAIAFGKTRVAWHKGVPVPPGCLIDVNGVPTTNPAVMQESPLGSLLTFAEHKGYALAAMCEILGGALSGGKTTHQETLQTSPDAILNCMTTIIINPELFGAPDCNAQTEAFAEWVKASPHDDDKPILLPGEWEVNTRRERQKQGIPLDAGSWQAICDAARQIGMPEETLQAFCQQLAS | soluble |
| MESNEDVERLLCQKYPGLAAELQPSGACIIRGVLGSEDTWRRLKLYLPHHPALHGFQLYVQESLEYKLYTSANLKLQDDWLLEDFLDHLPKILPAQKAPTVPKELCREGNIYYDILALYKSNEYCLQVDEACSMIRFSEFTDFEQHYLELKIPSLLLLDHSLPDCVSLGEMLTKSAGNLEEALNLFRKLLEDLRPFYDNFMDIDELCHVLQPSPISSKHKTRLFPLKDRVYLKLTIADPFACIASMSLKIIGPTEEVARLRHVLSDGLSNWDSEMNIHKNLLRMFDLCYFPMPDWSDGPKLDEEDNEELRCNICFAYRLDGGEVPLVSCDNAKCVLKCHAVCLEEWFKTLMDGKTFLEVSFGQCPFCKAKLSTSFAALLND | soluble |
| MESVTRKSVLQLEERPGDSSSSSDEEINTIGNVPLDWYKDLSHIGYTRDGIKLLRRKRVGPLCPVYVKKGFYYLYDEKNDEEIALSRNDLKRLVSIVRLQNPSGATESGFVGEEIVFWTGTPRIEPIRNRNEPKRSFLPSRHEAAQVVKLVRSILRRKRIEELKEHKSEKEDLSIWEETSFEQVGRSHHYLPPPKTPLPGHEESYRPPPEFLLNEEEKSKRKENNELVPETYNFLRHVPLYTSLIREHFERCLELYCAPRMRVRRRKIDPEALLPKLPSPDTLRPFPDSQVASFGPHAGAIRAISLNSNGQWLACACQDGSVSIWEVATGICRIRIDFQEKLKEMLASFESLSQATESEMESMGQYEDLSILHVAWSPKENDFKLAVCIKHFVAVVNVAHILYPDEAQDSQSFGYSVVGEPSSNWKDWKDERGNLGRIAIIEHSRKVQHVHWHQRGDYFVVLTKNAFGSSLVVHQLSRKRTQSPFSKSAKGVITADFHPSKSLFFITTKHHVRIYDLAQAQLVNKLVTGISEISAMSVHPSGNHVLIGSVEGQLVWFDLDLSSRPYKRIRDHTYTVSSIAFHPTLPLFADASDDQTVAVFHATVYEDLLQNPLIVPLKVLKLPHNSKGTGVWSICWHPQLPWLFVSGIDEYVRLYADTS | soluble |
| METAPDEAPTEFLEPGEEIVENVIEEEVVHEEDVEHHEEDGEMIEVQHEEVLEEIVEEDGMMFDTDGRVIEYSDVMVYEEGTEVIEEYVEVEDLGDGRYAYVMTDDIGHRRLLKPHEVEAVKKMPGMMEEEVVMDDEKAPNTSYAAAQKRGRFPPQARSSLSPQKPRAAGAYMGPEAYYQQPKRMTHMAKVDVEKYSPVTPVNRRPLMDNAIFKSKLPRKSAPWQEETAANGGPQSTSLIRSPSPMLKEPLFDDNEIRFKCAECGDGFPVMDRLCDHMIKQHDCQTNVREVQFFADRDFENFLLKVEKATLGRDPEDAIRKKSRAGSSQLFVCNYMNKGRQKMAELVEVGIVGLSERPLEVCTAFVQKTHGYECIRVKYCDQHIHYDGNIGFRVPIAVKRRLFEMSFKRLPIPCMQIMLGLEAEQLLPHPTRFEEKLKNLSHVEIIELLQIINASLRKHQEVEPRGKKVPIKFETIKSSEGSQTLMVKRVTPPKKEHMDYDEPDPNIPSTSAQALGYNPDDDEGDDVPMMSREEEVLDDETGEESVMTEDCDGMMEDNMCSFLVFFCWRKNGEK | not soluble |
